Test system: Saccharomyces cerevisiae
Assay: protein stability index of tFT-peptide fusion in wild type (PSI (0-1 scale)); higher = more stable (slower turnover)
Settings: genetic background: wild type
Experimental: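 MPS profiling in S. cerevisiae of two library types built from selected 12-aa C-degron peptides (IN1, IN2, LN1, LN3, VN2, R1-R5, W1-W3, Atg1 and Rpa12 C-termini): saturation mutagenesis libraries and C-terminal +1 capping libraries (13 aa). Each peptide is fused to the C-terminus of a sfGFP-mCherry timer, after a GGGS linker. Cells are FACS-sorted into 8 mCherry/sfGFP bins and sequenced. PSI runs from 0 (unstable) to 1 (stable), measured once in wild type and in the das1Δ or doa10Δ background.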
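Note: PSI derived as read-weighted mean over the 8 sorting bins, only variants exceeding 10 total reads kept, mCherry placed adjacent to the peptide and sfGFP distal.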

With AMWRVGLWRGAS as the sequence, how does the protein stability index read?
The protein stability index was 0.43.

AQWRVGLWRGAS was tested. Which protein stability index did it give?
The protein stability index was 0.499.

ARWREGLWRGAS was tested. Which protein stability index did it give?
The protein stability index was 0.673.

For ARWRVGCWRGAS, which protein stability index is on record?
The protein stability index was 0.524.

How did the protein stability index turn out when ARWRVGDWRGAS was run?
Its protein stability index is 0.665.

With ARWRVGIWRGAS as the sequence, how does the protein stability index read?
Its protein stability index is 0.344.

ARWRVGKWRGAS was tested. Which protein stability index did it give?
The protein stability index was 0.327.

Which protein stability index does the source give for ARWRVGLCRGAS here?
The protein stability index was 0.657.

How did the protein stability index turn out when ARWRVGLHRGAS was run?
The protein stability index was 0.63.

For ARWRVGLIRGAS, which protein stability index is on record?
Its protein stability index is 0.561.

For ARWRVGLWLGAS, which protein stability index is on record?
The protein stability index was 0.467.

How did the protein stability index turn out when ARWRVGLWMGAS was run?
Its protein stability index is 0.622.

How did the protein stability index turn out when ARWRVGLWRGAG was run?
The protein stability index was 0.254.

For ARWRVGLWRGAH, which protein stability index is on record?
The protein stability index was 0.536.

How did the protein stability index turn out when ARWRVGLWRGASE was run?
The protein stability index was 0.663.

How did the protein stability index turn out when ARWRVGLWRGASL was run?
The protein stability index was 0.719.

With ARWRVGLWRGASN as the sequence, how does the protein stability index read?
Its protein stability index is 0.658.

For ARWRVGLWRGASY, which protein stability index is on record?
The protein stability index was 0.653.

With ARWRVGLWRGDS as the sequence, how does the protein stability index read?
Its protein stability index is 0.667.

With ARWRVGLWRGMS as the sequence, how does the protein stability index read?
The protein stability index was 0.202.

ARWRVGLWRIAS was tested. Which protein stability index did it give?
Its protein stability index is 0.088.

ARWRVGLWRQAS was tested. Which protein stability index did it give?
The protein stability index was 0.0958.

How did the protein stability index turn out when ARWRVGLWRVAS was run?
Its protein stability index is 0.0841.

How did the protein stability index turn out when ARWRVGLWYGAS was run?
Its protein stability index is 0.603.

ARWRVGVWRGAS was tested. Which protein stability index did it give?
Its protein stability index is 0.304.

For ARWWVGLWRGAS, which protein stability index is on record?
Its protein stability index is 0.508.

How did the protein stability index turn out when CDSCGYKFRTNN was run?
The protein stability index was 0.251.

Which protein stability index does the source give for CKHKKGQKQKIN here?
Its protein stability index is 0.0815.

With CTMCGYKFRTNN as the sequence, how does the protein stability index read?
The protein stability index was 0.236.

How did the protein stability index turn out when CTSAGYKFRTNN was run?
The protein stability index was 0.303.

How did the protein stability index turn out when CTSCGHKFRTNN was run?
Its protein stability index is 0.256.

How did the protein stability index turn out when CTSCGRKFRTNN was run?
Its protein stability index is 0.456.

CTSCGSKFRTNN was tested. Which protein stability index did it give?
Its protein stability index is 0.549.

With CTSCGYKFLTNN as the sequence, how does the protein stability index read?
Its protein stability index is 0.332.

How did the protein stability index turn out when CTSCGYKFQTNN was run?
The protein stability index was 0.175.

For CTSCGYKFRSNN, which protein stability index is on record?
The protein stability index was 0.508.

With CTSCGYKFRTGN as the sequence, how does the protein stability index read?
The protein stability index was 0.581.

CTSCGYKFRTNI was tested. Which protein stability index did it give?
The protein stability index was 0.601.

With CTSCGYKFRTNNL as the sequence, how does the protein stability index read?
Its protein stability index is 0.723.

Which protein stability index does the source give for CTSCGYKFRTNNQ here?
Its protein stability index is 0.681.

For CTSCGYKFRTNV, which protein stability index is on record?
Its protein stability index is 0.53.

CTSCGYKFRTWN was tested. Which protein stability index did it give?
Its protein stability index is 0.288.

CTSCGYTFRTNN was tested. Which protein stability index did it give?
Its protein stability index is 0.245.

Which protein stability index does the source give for CTSCIYKFRTNN here?
Its protein stability index is 0.163.

For CTSCPYKFRTNN, which protein stability index is on record?
Its protein stability index is 0.261.

Which protein stability index does the source give for CTSYGYKFRTNN here?
The protein stability index was 0.145.

Which protein stability index does the source give for EKHKKGQKQKIN here?
Its protein stability index is 0.178.

For FKMRWTFRYWVN, which protein stability index is on record?
The protein stability index was 0.119.

How did the protein stability index turn out when FLMRWTFRYWVN was run?
The protein stability index was 0.0449.

For FPMRWTFRYWVN, which protein stability index is on record?
The protein stability index was 0.062.

Which protein stability index does the source give for FSHRWTFRYWVN here?
The protein stability index was 0.0512.

With FSLAASFWRVVG as the sequence, how does the protein stability index read?
Its protein stability index is 0.121.

Which protein stability index does the source give for FSMNWTFRYWVN here?
The protein stability index was 0.0654.

FSMQWTFRYWVN was tested. Which protein stability index did it give?
Its protein stability index is 0.0371.

Which protein stability index does the source give for FSMRMTFRYWVN here?
The protein stability index was 0.0474.

FSMRWTFGYWVN was tested. Which protein stability index did it give?
The protein stability index was 0.0637.

With FSMRWTFMYWVN as the sequence, how does the protein stability index read?
The protein stability index was 0.0968.

Which protein stability index does the source give for FSMRWTFQYWVN here?
Its protein stability index is 0.0522.

For FSMRWTFRLWVN, which protein stability index is on record?
Its protein stability index is 0.028.

Which protein stability index does the source give for FSMRWTFRNWVN here?
Its protein stability index is 0.0567.

Which protein stability index does the source give for FSMRWTFRYAVN here?
Its protein stability index is 0.158.

How did the protein stability index turn out when FSMRWTFRYWVNA was run?
The protein stability index was 0.163.

With FSMRWTFVYWVN as the sequence, how does the protein stability index read?
Its protein stability index is 0.0513.

FSMRWTKRYWVN was tested. Which protein stability index did it give?
The protein stability index was 0.0745.

For FSMRWVFRYWVN, which protein stability index is on record?
Its protein stability index is 0.077.

For FSMVWTFRYWVN, which protein stability index is on record?
Its protein stability index is 0.0843.

How did the protein stability index turn out when FSQRWTFRYWVN was run?
Its protein stability index is 0.0417.

How did the protein stability index turn out when GKILRQKMNHQN was run?
The protein stability index was 0.263.

How did the protein stability index turn out when HRWRVGLWRGAS was run?
The protein stability index was 0.457.

How did the protein stability index turn out when IRWRVGLWRGAS was run?
Its protein stability index is 0.163.

For KGHKKGQKQKIN, which protein stability index is on record?
The protein stability index was 0.108.

KKAKKGQKQKIN was tested. Which protein stability index did it give?
The protein stability index was 0.106.

KKHDKGQKQKIN was tested. Which protein stability index did it give?
The protein stability index was 0.0762.

With KKHKGGQKQKIN as the sequence, how does the protein stability index read?
The protein stability index was 0.0809.

How did the protein stability index turn out when KKHKKGQKDKIN was run?
Its protein stability index is 0.652.

KKHKKGQKQKGN was tested. Which protein stability index did it give?
The protein stability index was 0.61.

For KKHKKGQKQKINI, which protein stability index is on record?
The protein stability index was 0.649.

For KKHKKGQKQKINV, which protein stability index is on record?
The protein stability index was 0.647.

Which protein stability index does the source give for KKHKKGQKQKINY here?
The protein stability index was 0.643.

How did the protein stability index turn out when KKHKKGQKQKIR was run?
Its protein stability index is 0.676.

How did the protein stability index turn out when KKHKKGQKQKVN was run?
The protein stability index was 0.208.

KKHKKGQKQKWN was tested. Which protein stability index did it give?
The protein stability index was 0.305.

KKHKKGQKQQIN was tested. Which protein stability index did it give?
The protein stability index was 0.404.

Which protein stability index does the source give for KKHKKGQKRKIN here?
The protein stability index was 0.275.

Which protein stability index does the source give for KKHKKGQQQKIN here?
Its protein stability index is 0.162.

KKHKKGSKQKIN was tested. Which protein stability index did it give?
Its protein stability index is 0.0787.

How did the protein stability index turn out when KKHKKHQKQKIN was run?
Its protein stability index is 0.0431.

With KKHKKIQKQKIN as the sequence, how does the protein stability index read?
Its protein stability index is 0.0571.

Which protein stability index does the source give for KKHKKMQKQKIN here?
The protein stability index was 0.027.

For KKHKKWQKQKIN, which protein stability index is on record?
The protein stability index was 0.0352.

How did the protein stability index turn out when KKHKQGQKQKIN was run?
Its protein stability index is 0.0536.

With KKHKRGQKQKIN as the sequence, how does the protein stability index read?
Its protein stability index is 0.0579.

For KKHNKGQKQKIN, which protein stability index is on record?
Its protein stability index is 0.0428.

For KKHVKGQKQKIN, which protein stability index is on record?
The protein stability index was 0.0752.

LAILRQKMNHQN was tested. Which protein stability index did it give?
Its protein stability index is 0.137.

With LHVYLSCVACIN as the sequence, how does the protein stability index read?
Its protein stability index is 0.0172.

Which protein stability index does the source give for LKIARQKMNHQN here?
The protein stability index was 0.277.

How did the protein stability index turn out when LKIDRQKMNHQN was run?
Its protein stability index is 0.241.

With LKILNQKMNHQN as the sequence, how does the protein stability index read?
Its protein stability index is 0.395.

Which protein stability index does the source give for LKILRQKANHQN here?
The protein stability index was 0.373.

With LKILRQKMNFQN as the sequence, how does the protein stability index read?
Its protein stability index is 0.225.

For LKILRQKMNHCN, which protein stability index is on record?
The protein stability index was 0.191.

How did the protein stability index turn out when LKILRQKMNHQNV was run?
Its protein stability index is 0.669.

How did the protein stability index turn out when LKILRQKMNHQY was run?
The protein stability index was 0.274.

For LKILRQKMNPQN, which protein stability index is on record?
Its protein stability index is 0.689.

For LKILRQKMNQQN, which protein stability index is on record?
The protein stability index was 0.218.

For LKILRQKMNYQN, which protein stability index is on record?
Its protein stability index is 0.219.

With LKILRQKMVHQN as the sequence, how does the protein stability index read?
The protein stability index was 0.19.

For LKILRQNMNHQN, which protein stability index is on record?
The protein stability index was 0.255.

LKILRTKMNHQN was tested. Which protein stability index did it give?
Its protein stability index is 0.178.

LKMLRQKMNHQN was tested. Which protein stability index did it give?
Its protein stability index is 0.171.

LMILRQKMNHQN was tested. Which protein stability index did it give?
The protein stability index was 0.166.

How did the protein stability index turn out when LQVYLSCVACIN was run?
The protein stability index was 0.0249.

For LRVYLSCVACIN, which protein stability index is on record?
The protein stability index was 0.0194.

LTSCGYKFRTNN was tested. Which protein stability index did it give?
The protein stability index was 0.197.

LVCYLSCVACIN was tested. Which protein stability index did it give?
Its protein stability index is 0.0123.

For LVHYLSCVACIN, which protein stability index is on record?
Its protein stability index is 0.0263.
